From PMC10303025 come the findings set out here.

In this data set the target is T1, M2-1 transcription antiterminator (Human respiratory syncytial virus, UniProt P04545 1-194).
T1 sequence: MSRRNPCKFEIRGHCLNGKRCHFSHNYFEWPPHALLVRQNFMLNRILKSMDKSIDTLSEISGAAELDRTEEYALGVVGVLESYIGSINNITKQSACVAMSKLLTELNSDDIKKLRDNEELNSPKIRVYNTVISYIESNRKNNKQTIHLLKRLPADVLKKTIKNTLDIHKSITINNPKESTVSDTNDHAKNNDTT
The data set is described as follows: not stated (EMSA and fluorescence polarization titrations mentioned); Kd may derive from earlier work [37]. Conditions: protein: recombinant; chain copies: 4; label: 5' 6-FAM; single strand. On the technique in general: In EMSA bound probe runs differently from free probe, usually more slowly.

The Kd is the concentration at which binding is half-saturated. Consider AUAAAGUAGUUAAUUAAAAA (ssRNA) [RNARSV20 (SH gene end 20-mer)], for which the Kd stood at 20 nM.
